Data: article PMC2849977 (2009)
Blank lines part the entries; values can stand above or below the binder they belong to.

Target: histone H3 peptide H3K4me3-K9me2 1-24 (Homo sapiens, UniProt P68431, H3K4me3+H3K9me2)
Assay: ITC

Kd: ~300 nM
B1: KIAA1718 1-488 (protein)
chain: MAGAAAAVAAGAAAGAAAAAVSVAAPGRASAPPPPPPVYCVCRQPYDVNRFMIECDICKDWFHGSCVGVEEHHAVDIDLYHCPNCAVLHGSSLMKKRRNWHRHDYTEIDDGSKPVQAGTRTFIKELRSRVFPSADEIIIKMHGSQLTQRYLEKHGFDVPIMVPKLDDLGLRLPSPTFSVMDVERYVGGDKVIDVIDVARQADSKMTLHNYVKYFMNPNRPKVLNVISLEFSDTKMSELVEVPDIAKKLSWVENYWPDDSVFPKPFVQKYCLMGVQDSYTDFHIDFGGTSVWYHVLWGEKIFYLIKPTDENLARYESWSSSVTQSEVFFGDKVDKCYKCVVKQGHTLFVPTGWIHAVLTSQDCMAFGGNFLHNLNIGMQLRCYEMEKRLKTPDLFKFPFFEAICWFVAKNLLETLKELREDGFQPQTYLVQGVKALHTALKLWMKKELVSEHAFEIPDNVRPGHLIKELSKVIRAIEEENGKPVKSQGI

Kd: ~1000 nM
B2: PHF8 1-447 (protein)
chain: MNRSRAIVQRGRVLPPPAPLDTTNLAGRRTLQGRAKMASVPVYCLCRLPYDVTRFMIECDMCQDWFHGSCVGVEEEKAADIDLYHCPNCEVLHGPSIMKKRRGSSKGHDTHKGKPVKTGSPTFVRELRSRTFDSSDEVILKPTGNQLTVEFLEENSFSVPILVLKKDGLGMTLPSPSFTVRDVEHYVGSDKEIDVIDVTRQADCKMKLGDFVKYYYSGKREKVLNVISLEFSDTRLSNLVETPKIVRKLSWVENLWPEECVFERPNVQKYCLMSVRDSYTDFHIDFGGTSVWYHVLKGEKIFYLIRPTNANLTLFECWSSSSNQNEMFFGDQVDKCYKCSVKQGQTLFIPTGWIHAVLTPVDCLAFGGNFLHSLNIEMQLKAYEIEKRLSTADLFRFPNFETICWYVGKHILDIFRGLRENRRHPASYLVHGGKALNLAFRAWTRKE
